The results in this text go back to the supplement of paper PMC12042874.

The nature of the data set: amyloid nucleation score (Sup35N fusion, yeast selection) (log enrichment); library NNK2; higher = more nucleation; inactive = no reads after selection. A digest of the protocol: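 The nucleation score is the DiMSum log enrichment of output over input reads, centred on the mode score of non-aggregating sequences. Only sequences with 100 or more input reads were scored, using Illumina sequencing of input and output plasmid inserts. Psi-negative yeast expressing Sup35N fused to peptides of 20 random codons were induced 24 hours with 100 μM copper sulfate and grown 7 days at 30°C on medium lacking adenine and uracil.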

± gives the uncertainty stated by the source.

In the case of CYAIMNGVSFLDLIGGARET, the amyloid nucleation score worked out at 5.85 ± 0.077.

In turn, FTVRQTKAAGECSSKQWGTL displayed an amyloid nucleation score of 3.18 ± 0.098. For ARNWVHNCFWSHISFTSIA the value was 1.59 ± 0.13. The same measure for HPTLEPGKHYLRVSKSNTSR: 0.404 ± 0.26; for TVGNF: 1.25 ± 0.47. As to EHVGVTTVPIPLGMGLTWWC, the amyloid nucleation score stood at 0.309 ± 0.16. The same measure for VRGSATEFTILVVVVVLGKR: 0.182 ± 0.42; for LSYTSDSRPAGF: -0.347 ± 1.1. Regarding EVTSTY, the amyloid nucleation score worked out at 0.501 ± 0.46. For RYASDFWILNICAGDIVILL the value was 8.495 ± 0.054; for MLGRVKTKVACYG, 0.409 ± 0.64; for GMGSSRGQRSTYYYGDLAYA, 0.96 ± 0.21. Substance LRQCKGLRVLLPTGWSYKCE showed an amyloid nucleation score of 1.67 ± 0.58.

As to YSRVQSRPMCKLRKALHWRV, the amyloid nucleation score was found to be 1.31 ± 0.25.

YVVVLNWNSHCSKYYELRQE registered an amyloid nucleation score of 8.402 ± 0.05.

Consider LYSLEKTCQVELCRRISTLL, for which the amyloid nucleation score was -1.35 ± 0.75. For LGIYVFAFKRMVNMEDLYTR the value was -1.05 ± 0.41; for VSNGVVMDKCIRKICTVLTM, -0.667 ± 0.45. Substance VTWALCAGGRQFVTFSS registered an amyloid nucleation score of 8.505 ± 0.045. The same measure for LLLSFTCLRHTGWFFIRRCC: -0.631 ± 0.41. For MFLILMCNCSYVGILRPNST, the amyloid nucleation score was 6.672 ± 0.03. MGMFKTCVHLNCVYR returned an amyloid nucleation score of 5.229 ± 0.05. Take CSCHKSSCLRTTFCLEHSSG: the amyloid nucleation score came to 6.866 ± 0.062. The same measure for WLHTTFSRSICSISIHRALE: -0.07 ± 0.48. For DRYVSV the value was 0.455 ± 0.43; for TLLDKLK, “inactive”. The same measure for ANGGYMVYSFAEEYYYDWCT: -0.063 ± 0.29. In turn, YSGRREILYHNRVSPHCMNL returned an amyloid nucleation score of 2.64 ± 0.12. The same measure for INLNNFLVLLLCKHRVVWKQ: 1.48 ± 0.2; for GCHSFLPGYFTWNYDSDNYF: “inactive”; for FRYERTGRAMSTASVVTTTV: 1.04 ± 0.68. The same measure for NFMNKMFALTWCCIDKILCG: -1.1 ± 0.78. The same measure for KYRKSGSERTRARTGVCTVW: 0.585 ± 0.66.

As to HIRFYVLSRNRSASNISIFT, the amyloid nucleation score was 3.09 ± 0.054.

In turn, MTYIRFPLMQGHFWIMSNSK registered an amyloid nucleation score of 0.181 ± 0.35. As to MINFHKHGLTI, the amyloid nucleation score is -0.482 ± 0.35. For RFNGN the value was -0.541 ± 1.1; for NVRMSGLF, 2.67 ± 0.14; for NARICDTLVLKLLTVLLENG, 3.44 ± 0.12. For LIRVYRKVGLVTLLHGMNRM the value was 0.039 ± 0.32; for RYAINCVEAYGLC, -0.387 ± 0.63.

Substance STWPIGPSCSLIVCREDCET had an amyloid nucleation score of 1.45 ± 0.34. For FRRFCQDILYICMRKDMVQG the value was 0.833 ± 0.8; for CCGFGDEKDN, -0.206 ± 1.1; for DTFINWIWRGYGKWMCSGRR, -0.135 ± 0.39.

Consider MTTYAVLGVPI, for which the amyloid nucleation score was -0.421 ± 0.28. The same measure for RAHVYSSKDP: 5.92 ± 0.059; for SNGPW: -0.512 ± 0.76; for RESGLRFNNYMMRWLHGGRV: -0.072 ± 0.29. LVAKHSG displayed an amyloid nucleation score of 0.693 ± 0.27. For ACNFFPLI the value was 3.29 ± 0.065; for SRPDLHHAKALYFNDLRRE, 0.232 ± 0.27; for PERCYQTG, -0.251 ± 0.76.

For KLRFYIYCFILLKCMTGART, the amyloid nucleation score entry is “inactive”. The same measure for LLPWGVTMVERLFIPIRCSD: 0.308 ± 0.35; for SDIYRSSRLQ: 0.179 ± 0.33; for VNIFVLLYLYVWNASIVITF: -0.221 ± 1.1. In turn, YLPVLEVVPTNGVPHDRFWS registered an amyloid nucleation score of 1.08 ± 0.29. In turn, TIGPNKMRVEAGLEFQKLGK gave an amyloid nucleation score of -1.23 ± 0.76.

As for KFACCRYVGVYYKTTYSILR, the amyloid nucleation score was -1.17 ± 0.49.

VSDLLPVSDGSFTNPIVMLV returned an amyloid nucleation score of 0.323 ± 0.26.

In the case of IPSRAVVPFFLDLRPHADVS, the amyloid nucleation score turned out to be 0.25 ± 0.46. Take QGMNPLQSLDVKCYYL: the amyloid nucleation score entry is “inactive”. On to LYKYLCAIIKNVDKVVPLRM, for which the amyloid nucleation score is -0.904 ± 0.49.

As to SSSRS, the amyloid nucleation score is 0.66 ± 0.62. As to SEAYEGFSYSVLQYEP, the amyloid nucleation score was -0.092 ± 0.36.

Take HQRYSRLLIKKCYTSASVPC: the amyloid nucleation score was -0.245 ± 0.62. For LWQLPIILWFLRNCVMRNPA the value was -0.723 ± 0.79. The same measure for SEFVGSYWGFDLMLGLD: -0.807 ± 1; for DVKSYTITYSLSFHVMSVII: 2.72 ± 0.21; for VFTKLTLSSI: 0.227 ± 1.1.

KMAMTVLILPYVPGQLRLTE showed an amyloid nucleation score of 3.12 ± 0.1. The same measure for SLSNCSTWTSF: 0.02 ± 1; for DIIVYM: “inactive”; for TPVQDNYSYFIFKPIDESIA: 2.19 ± 0.12. The substance LVNVIS showed an amyloid nucleation score of 0.2 ± 0.35. In turn, DNVKVWSGFTRY gave an amyloid nucleation score of -0.148 ± 0.49. For RQIALCGLI the value was 3.47 ± 0.096; for VNSLSGHFFVFFRLLFTTMV, -1.1 ± 0.41.

NLVYYYHLLSRIVNSYNDAL registered an amyloid nucleation score of 0.811 ± 0.82. VGVIAMPLFLCMGQDSLLFV displayed an amyloid nucleation score of 4.6 ± 0.061. Consider IFNVRRVLHFIIYVSDIPLD, for which the amyloid nucleation score is -1.89 ± 0.78. Regarding GKRLSAFWQVVRSWLHIGGM, the amyloid nucleation score was found to be 5.176 ± 0.035. The same measure for PFGHFQLLINSKTGMRSVMT: -0.463 ± 0.37; for LERNSMPITVSWSGFEGLKG: -0.295 ± 0.65; for KATSCFLDWCGCPWHLMALD: 0.496 ± 0.29. The same measure for NWNLRHRCAGWYCDRRKVLR: 4.28 ± 0.085; for WDCGQTIYGFWDD: -0.58 ± 0.48; for ILLRMTITCMFTPYHAERRG: 4.61 ± 0.07. The same measure for FDMEIFTYGGTSNNFGHCDD: “inactive”; for ITIFTSWPVIMLETVMCYCN: 5.32 ± 0.079. Turning to MCLMYANWERFDQKNGLR, the amyloid nucleation score amounted to 4.12 ± 0.12. The same measure for AFRDRWLKRMKLTYVVGCIN: -0.17 ± 0.45. AGNQIRIRASTCASMLGWDL: the amyloid nucleation score was found to be 3.83 ± 0.051. Take SVRHCLSLSSM: the amyloid nucleation score result is “inactive”.

Substance WLAICVARWSETYCMFVWTT returned an amyloid nucleation score of -0.441 ± 1.1. The substance CTWDFNDHFMLVQNNDEQLW came in with an amyloid nucleation score of 0.087 ± 0.79. The same measure for QCVQRHALRVG: 4.31 ± 0.12; for MSMATTWSIFDWVEREFPFY: -0.933 ± 0.55. For MLWWLYLTDYSISGYNVGKM the value was 0.433 ± 0.74; for SSSWLCYTSFWYVNHSRRSL, 8.051 ± 0.043. Regarding NSYILKDFNCEPGVNMDWQN, the amyloid nucleation score entry was “inactive”. For LKRNMWFLYRGTFARSYYAN the value was -1.03 ± 0.55.
